The assay has as its target T1, Human complement factor H purified from plasma (human, UniProt P08603 19-1231).
T1 construct: also called Plasma CFH; plasma-purified CFH
The assay can be described thus: SPR, His-SUMO-PspCN-Cys as ligand, plasma-purified CFH as analyte, kinetic analysis. In general terms: SPR reads the build-up and loss of mass on a sensor chip optically.

Drawing on patent US20190100563A1 (UNIVERSITY COURT OF THE UNIVERSITY OF EDINBURGH, published 2019), this text covers Kd for 1 molecule.

A word on the Kd: it is the free concentration of one partner at which half of the binding sites on the other are occupied at equilibrium, for simple one-to-one binding. A high value points to weaker binding.

B1: His-SUMO-PspCN-Cys (other)
chain: ATENEGSTQAATSSNMAKTEHRKAAKQVVDEYIEKMLREIQLDRRKHTQNVALNIKLSAIKTKYLRELNVLEEKSKDELPSEIKAKLDAAFEKFKKDTLKPGEKGSGSGSGSGGC
notes: also called PspCN-Cys (as SPR ligand); not shown: N-terminal His-SUMO tag
Molecule B1 came in with a Kd of about 0.1 pM.
